In publication PMC12506977 one finds stoichiometry N data, which are given here for one substance.

In the experiment the target is Tetrahymena Bld10/CEP135 (Tetrahymena thermophila (endogenous in strain SB715)). Nature of the experiment: cryo-EM structure; single-particle analysis of mechanically disrupted (splayed) centrioles isolated from Tetrahymena, 10 mM Hepes pH 7.5; proximal A-C linker (class 1) with adjacent microtubule triplet regions; focused maps 3.6 to 3.8 Å (B-C junction 3.8 and 4.0 Å, A-B junction 5.8 Å); proteins assigned by fitting AlphaFold2 models of MS-detected proteins (COLORES).

For orientation: stoichiometry N means the number of molecules, sites or subunits per partner or assembly.

In the case of “Tetrahymena Bld10/CEP135 (natural protein)”, the stoichiometry N amounted to 2.
